Reference: patent publication US20200207857A1
Residue numbers refer to the chain shown, from its start. Values belong to the binder of their own block, whether it stands above or below them.

What was measured:
[1] = biological target: Recombinant protein Claudin 18.2; experiment: ELISA on plate-coated recombinant Claudin 18.2, OD370; Kd table under the graph, no unit in the table, unit from the x axis log[antibody] nM
[2] = biological target: Recombinant protein Claudin 18.2; experiment: ELISA on plate-coated recombinant Claudin 18.2, OD450; Kd table under the graph, no unit in the table, unit from the x axis log[antibody] nM

Chain of Recombinant protein Claudin 18.2 (chain, as listed by the source limits assumed, form in doubt): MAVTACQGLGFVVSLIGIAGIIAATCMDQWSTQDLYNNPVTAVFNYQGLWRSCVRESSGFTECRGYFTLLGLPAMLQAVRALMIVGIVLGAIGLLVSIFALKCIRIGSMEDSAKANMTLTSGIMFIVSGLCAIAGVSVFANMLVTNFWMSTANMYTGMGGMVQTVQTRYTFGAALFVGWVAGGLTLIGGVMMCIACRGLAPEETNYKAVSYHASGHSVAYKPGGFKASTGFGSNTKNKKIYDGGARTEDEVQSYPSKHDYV

B1: 14D7 (antibody, V domains shown)
VH: VQLQQSGGGLVQPGGSRKLSCAASGFTFSSFGMHWVRQAPEKGLEWVGYINSGSSTIYYADTVKGRFTISRDNPRNTLFLQMTSLRSEDTAMYYCASGAYYGNAMDYWGQGTSVTVSS
VL: MTQDELSLTVTAGEKVTMSCKSSQSLLNSGNQRNYLTWYQQKPGQPPKLLIYWASTRESGVPNRFTGSGSGTDFTLTISSVQAVDLAVYYCQNNYFYPLTFGSGTKLELK
- Kd [1]: 100 pM

B3: h5C9os (antibody, V domains shown)
VH: EVQLVESGGGLVQPGGSLRLSCAVSGYTFSMNWVRQAPGKGLEWVAWINMYTGEPTYADDFKGRFTISRDDSKNTLYLQMNSLRAEDTAVYYCARTGTGNTMDYWGQGTLVTVSS
VL: DIQMTQSPSSLSASVGDRVTITCKSSQSLLNSGNQKSYLTWYQQKPGKAPKLLIYWASTLESGVPSRFSGSGSGTDYTLTISSLQPEDFATYYCQNAYSFPFTFGQGTKVEIK
- Kd [2]: 134 pM

B5: h5C9on (antibody, V domains shown)
VH: B3 VH with G97A, T98P, T101G, M102F
VL: B3 VL
- Kd [2]: 131 pM

B11: h5C9op (antibody, V domains shown)
VH: B3 VH with G97S, T98R, T101G
VL: B3 VL
- Kd [2]: 109 pM

B12: h5C9oaq (antibody, V domains shown)
VH: B3 VH with P55Q, T96L, G97Y, T98N, T101S, M102L
VL: B3 VL with S32W, E61F
- Kd [2]: 203 pM

B13: h5C9oaa (antibody, V domains shown)
VH: B3 VH with T96L, G97V, T98R, T101G
VL: B3 VL
- Kd [2]: 81.5 pM

B14: h5C9or (antibody, V domains shown)
VH: B3 VH with T96L, G97N, T98R, T101S
VL: B3 VL
- Kd [2]: 71.5 pM

B15: h5C9oy (antibody, V domains shown)
VH: B3 VH with T96S, G97S, T98K, T101G, M102L
VL: B3 VL
- Kd [2]: 103 pM

B18: h5C9ox (antibody, V domains shown)
VH: B3 VH with T96A, G97S, T98R, T101G
VL: B3 VL
- Kd [2]: 79 pM

B19: h5C9oo (antibody, V domains shown)
VH: B3 VH with T96L, G97V, T98R, T101G, M102F
VL: B3 VL
- Kd [2]: 122 pM

B21: h5C9ol (antibody, V domains shown)
VH: B3 VH with T96L, T98P, T101V, M102F
VL: B3 VL
- Kd [2]: 119 pM

B27: 1D5 (antibody, V domains shown)
VH: VQLQESGAELVRPGTSVKVSCKASRYAFTNYLIEWVKQRPGQGLEWIGMINPGSGGTHYNEKFKVKATLTADKSSSTAYMQLNSLTSDDSAVYFCARGGFGNSFAYWGQGTLVTVSA
VL: DIMMTQTPLSLTVTAGEKVTMSCKSSQSLLNGGNLKNYLTWYQQKPGQPPKLLTYWASTRESGVPARFTGSGSGTDFTLTISSVQAEDLAVYYCQNGYFYPYTFGGGTKLEIK
- Kd [1]: 55 pM

B28: 7A10 (antibody, V domains shown)
VH: B27 VH with R25G, H58N, V65G, N83S
VL: B27 VL with T7S, G32S, E61D, G97D
- Kd [1]: 104 pM

The next lines start with the values.

- Kd [2]: 278 pM
B2: h5C9a (antibody, V domains shown)
VH: EVQLVESGGGLVQPGGSLRLSCAASGYTFTNYGMNWVRQAPGKGLEWVAWINMYTGEPTYADDFKGRFTISRDDSKNTLYLQMNSLRAEDTAVYYCARLYNGNSLDYWGQGTLVTVSS
VL: B3 VL with Y77F

- Kd [2]: 91.9 pM
B4: h5C9ou (antibody, V domains shown)
VH: B3 VH with T96L, G97S, T98K, T101G
VL: B3 VL

- Kd [2]: 149 pM
B6: h5C9oar (antibody, V domains shown)
VH: B3 VH with T56N, T96L, G97Y, T98N, T101S, M102L
VL: B3 VL with S32W, E61W

- Kd [2]: 189 pM
B7: h5C9oap (antibody, V domains shown)
VH: B3 VH with P55R, T96L, G97Y, T98N, T101S, M102L
VL: B3 VL with S32W, E61Q

- Kd [2]: 98.7 pM
B8: h5C9ot (antibody, V domains shown)
VH: B3 VH with T96S, G97S, T98M, T101G, M102F
VL: B3 VL

- Kd [2]: 107 pM
B9: h5C9ov (antibody, V domains shown)
VH: B3 VH with T96L, G97V, T98K, T101G, M102F
VL: B3 VL

- Kd [2]: 323 pM
B10: h5C9n (antibody, V domains shown)
VH: B2 VH with A24V
VL: B3 VL with Y77F

- Kd [2]: 100 pM
B16: h5C9om (antibody, V domains shown)
VH: B3 VH with T96L, G97A, T98R, T101G, M102F
VL: B3 VL

- Kd [2]: 88.2 pM
B17: h5C9ow (antibody, V domains shown)
VH: B3 VH with T96L, G97T, T98K, T101G
VL: B3 VL

- Kd [2]: 107 pM
B20: h5C9oq (antibody, V domains shown)
VH: B3 VH with T96L, G97Y, T98R, T101V
VL: B3 VL

- Kd [2]: 108 pM
B22: h5C9ok (antibody, V domains shown)
VH: B3 VH with T96L, G97T, T98R, T101S, M102L
VL: B3 VL

- Kd [2]: 77.8 pM
B23: h5C9oz (antibody, V domains shown)
VH: B3 VH with T96L, G97S, T98R, T101S, M102L
VL: B3 VL

- Kd [1]: 136 pM
B24: 5H7 (antibody, V domains shown)
VH: EVKLQESGPSLVKPFQSLSLTCTVTDYSITRGYNWHWIRQFPGNKLEWMGYIHYSGSTNYNPSLKSRISITRDTSKNQFFLQLNSVTTEDTATYYCARDYYGNSFAYWGQGTLVTVFC
VL: DIVMTQDELSLTVTAREKVTMSCKSSQTLFNSGNQKNYLTWYQQKPGQPPKLLIYWASTRESGVPDRFTGSGSGTDFTLTISSVQAEDLAVYYCQNDYIFPYTFGGGTKLEIK

- Kd [1]: 343 pM
B25: 4G3 (antibody, V domains shown)
VH: KVQLQQSGGGLVQPGGSRKLSCAASGFTFSSFGMHWVRQAPEKGLEWVGYINSGSSTIYYADTVKGRFTISRDNPRNTLFLQMTSLRSEDTAMYYCASGAYYGNAMDYWGQGTSVTVSS
VL: DIVMTQDELSLTVTVGDKVTMNCRSSQSLLNSGNQRNYLTWYQQKPGQPPKLLIYWASTRESGVPDRFTGSGSGTDFTLTISSVQAEDLAVYYCQNVYFYPLTFGTGTKLELK

- Kd [1]: 78.2 pM
B26: 8C12 (antibody, V domains shown)
VH: EVQLQQSGGGLVQPGGSRKLSCAASGFTFSDYGMAWVRQAPGKGPEWVAFISNLAYSIYSTDTVTGRFTISRENAKNTLYLEMSSLRSDDTAMYYCARGSYYGNSFDYWGQGTTLTVSS
VL: DIVLTQSPAIMSASPGEKVTMTCSASSSVSYMYWYQQKPGSSPKPWIYDTSNLASGFPARFSGSGSGTSYSLIISNMEAEDAATYYCHQRSSYPTFGTGTKLELK
